{"source": "patent US7192735B2", "about": "“Phosphopantetheinyl transferases and uses thereof” (President & Fellows of Harvard College, priority 1995, dated 2007)", "molecules": {"B1": {"name": "ACPS: recombinant E. coli holo-acyl carrier protein synthase, 14 kDa dpj gene product overproduced in E. coli BL21(DE3)pDPJ (protein)", "chain": "MAILGLGTDIVEIARIEAVIARSGDRLARRVLSDNEWAIWKTHHQPVRFLAKRFAVKEAAAKAFGTGIRNGLAFNQFEVFNDELGKPRLRLWGEALKLAEKLGVANMHVTLADERHYACATVIIES"}, "B2": {"name": "Sfp: B. subtilis protein (26.1 kD) involved in surfactin biosynthesis, shown to be a phosphopantetheinyl transferase (protein)", "chain": "VIGAFDSQPIGIDIEKTKPISLEIAKRFFSKTEYSDLLAKDKDEQTDYFYHLWSMKESFIKQEGKGLSLPLDSFSVRLHQDGQVSIELPDSHSPCYIKTYEVDPGYKMAVCAAHPDFPEDITMVSYEELL"}, "B3": {"name": "EntD: E. coli protein (23.6 kD) involved in enterobactin biosynthesis, phosphopantetheinyl transferase (protein)", "chain": "SRQPIGIDIEEIFSVQTARELTDNIITPAEHERLADCGLAFSLALTLAFSAKESAFKASEIQTDAGFLDYQIISWNKQQVIIHRENEMFAVHWQIKEKIVITLCQHD"}, "B4": {"name": "o195: E. coli ORF protein of unknown function, homologous to ACPS, shown to phosphopantetheinylate substrates (protein)", "chain": "MYRIVLGKVSTLSAAPLPPGLREQAPQGPRRERWLAGRALLSHTLSPLPEIIYGEQGKPAFAPEMPLWFNLSHSGDDIALLLSDEGEVGCDIEVIRPRANWRWLANAVFSLGEHAEMDAVHPDQQLEMFWRIWTRKEAIVKQRGGSAWQIVSVDSTYHSSLSVSHCQLENLSLAICTPTPFTLTADSVQWIDSVN"}}, "key": {"apo-Dcp": {"test_system": "apo-Dcp", "assay": "in vitro phosphopantetheinylation of D-Alanyl carrier protein", "type": "biochemical, Lactobacillus casei", "experimental": "In another example, varying concentrations of apo-Dcp were incubated with ACPS at 37° C. to determine extent of phosphopantetheinylation.\nThe assays were incubated overnight at 37° C.\nThe [^3H] holo-Dcp formed was quantitated by dividing dpm by specific activity of pantetheinyl moiety of CoA which is equal to 4.83×10^14 dmp/mol."}, "Streptomycete ACPs": {"test_system": "Streptomycete ACPs", "assay": "modification of apo-form of Streptomycete ACPs", "type": "biochemical"}, "E. coli FAS apo-ACP": {"biological_target": "E. coli FAS apo-ACP (Escherichia coli, UniProt P0A6A8)", "sequence (P0A6A8 2-78)": "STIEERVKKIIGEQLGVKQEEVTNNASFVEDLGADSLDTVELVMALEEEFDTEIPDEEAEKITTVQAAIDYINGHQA", "settings": "for phosphopantetheinylation of ACP: 25 μM ACP, 60 min at 37° C., FIG. 11"}, "EntF": {"biological_target": "T1, EntF (Escherichia coli, UniProt P11454)", "T1 construct": "made in house", "T1 sequence (P11454 whole entry)": "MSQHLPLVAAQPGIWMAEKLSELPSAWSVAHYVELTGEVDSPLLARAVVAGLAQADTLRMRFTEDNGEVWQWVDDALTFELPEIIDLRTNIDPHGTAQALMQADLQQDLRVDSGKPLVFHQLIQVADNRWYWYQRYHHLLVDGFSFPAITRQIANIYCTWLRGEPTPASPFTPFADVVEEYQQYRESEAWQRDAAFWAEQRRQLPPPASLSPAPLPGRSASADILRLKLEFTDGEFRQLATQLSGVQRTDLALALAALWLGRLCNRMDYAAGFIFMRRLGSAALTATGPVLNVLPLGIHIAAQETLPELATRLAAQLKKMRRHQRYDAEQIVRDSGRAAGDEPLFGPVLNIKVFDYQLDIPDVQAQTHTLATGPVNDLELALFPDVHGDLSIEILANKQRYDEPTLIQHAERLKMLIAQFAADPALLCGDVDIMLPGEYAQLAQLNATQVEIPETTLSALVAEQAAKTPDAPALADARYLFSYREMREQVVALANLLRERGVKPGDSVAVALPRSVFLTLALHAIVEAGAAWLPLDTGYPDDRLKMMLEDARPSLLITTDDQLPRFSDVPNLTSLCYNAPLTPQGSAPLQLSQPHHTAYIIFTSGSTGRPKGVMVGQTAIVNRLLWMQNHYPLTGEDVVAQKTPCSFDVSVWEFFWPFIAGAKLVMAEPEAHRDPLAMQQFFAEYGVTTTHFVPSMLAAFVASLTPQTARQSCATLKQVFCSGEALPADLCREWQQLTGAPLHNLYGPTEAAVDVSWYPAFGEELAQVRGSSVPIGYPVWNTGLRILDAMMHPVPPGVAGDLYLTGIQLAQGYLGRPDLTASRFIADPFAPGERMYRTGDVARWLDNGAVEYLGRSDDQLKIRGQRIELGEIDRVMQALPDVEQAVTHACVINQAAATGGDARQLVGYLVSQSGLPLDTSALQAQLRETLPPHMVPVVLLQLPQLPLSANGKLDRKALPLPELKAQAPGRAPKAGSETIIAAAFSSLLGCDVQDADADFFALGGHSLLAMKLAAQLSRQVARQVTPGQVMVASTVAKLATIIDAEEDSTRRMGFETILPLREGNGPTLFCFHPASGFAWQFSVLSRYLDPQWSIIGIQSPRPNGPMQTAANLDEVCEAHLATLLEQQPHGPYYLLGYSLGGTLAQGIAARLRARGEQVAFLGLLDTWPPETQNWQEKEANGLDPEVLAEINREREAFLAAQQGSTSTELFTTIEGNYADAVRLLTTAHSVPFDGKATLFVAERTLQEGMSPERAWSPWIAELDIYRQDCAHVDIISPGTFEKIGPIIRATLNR", "assay": "[3H]-4'-phosphopantetheine incorporation into EntF", "type": "biochemical, E. coli", "settings": "for time course of modification of EntF: EntD 100 nM, ACPS and o195 at 15-fold higher concentrations, FIG. 14A; for phosphopantetheinylation of EntF: FIG. 12", "experimental": "A time course of EntD-catalyzed incorporation of radiolabel into EntF was performed."}, "apo-ACP [1]": {"biological_target": "T2, apo-ACP (Escherichia coli, UniProt P0A6A8+P24224)", "T2 sequence (P0A6A8 2-78, one chain of several)": "as the sequence (P0A6A8 2-78) above", "settings": "for Km: steady-state kinetics, [3H]CoA radioassay"}, "apo-ACP [2]": {"biological_target": "T2, apo-ACP", "settings": "50 μM apo-ACP, 1.8 μM ACPS, 210 μM [3H]CoA, 36 hour, 37° C., replicates"}, "SrfB1 [3]": {"biological_target": "T3, SrfB1 (Bacillus subtilis, UniProt Q04747)", "T3 construct": "hexa-histidine (His6, from pPROEX-1) (N); made in house; host or cells: E. coli AG1574 (plasmid pML 118)", "assay": "[3H]-4'-phosphopantetheine incorporation into SrfB1", "type": "biochemical", "settings": "FIG. 12"}, "SrfB1 [4]": {"biological_target": "T3, SrfB1", "assay": "[14C] amino acid activation by holo-SrfB1 formed with Sfp", "type": "biochemical", "settings": "2 μM apo-SrfB1, 1.3 μM Sfp, 200 μM CoASH, FIG. 15", "experimental": "The reaction was performed as follows. Apo-SrfB1 (2 μM) was incubated with 200 μM CoASH, 75 mM Tris.HCl pH 8.0, 10 mM MgCl2, 25 mM DTT and 1.3 μM Sfp for 15 min at 37° C. to generate holo-SrfB1. To the SrfB1-Sfp reaction mixture, unlabeled amino acid (valine or aspartic acid) was added to 90 μM final concentration. ATP was added to a final concentration of 2 mM, followed by 0.5 μCi [^14C]Val (281 Ci/mol) or [^14C]Asp (207 Ci/mol). The reaction (115 μL) was incubated for 15 min at 37° C., then stopped by the addition of 800 μL 10% TCA with 15 μL of a 25 mg/mL BSA solution as carrier. The precipitate was collected by centrifugation, washed with 10% TCA, dissolved in 150 μL Tris base, and then counted by liquid scintillation."}, "[5]": {"test_system": "His6-PCP (peptidyl carrier protein domain of TycA)", "sequence (P09095 528-602)": "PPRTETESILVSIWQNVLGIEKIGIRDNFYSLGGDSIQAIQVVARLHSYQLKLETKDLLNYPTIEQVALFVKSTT", "assay": "[3H]-4'-phosphopantetheine transfer radioassay, His6-PCP substrate", "settings": "for phosphopantetheinylation of His6-PCP: 25 μM His6-PCP, 60 min at 37° C., FIG. 11"}}, "note": "“And” between values parts separate entries of the source, which are not always exact repeats. Equal entries are not always repeated. “Also recorded” adds a separate entry of the source. Where two headings read alike, the source gives them in different places.", "data": [{"molecule": "B1", "values": [{"measurement": "phosphopantetheinylation of Dcp", "setting": "apo-Dcp", "result": "capable of phosphopantetheinylating Dcp"}, {"measurement": "radioactivity incorporated into the protein fraction, Dcp + ACPS", "setting": "apo-Dcp; 40 μM apo-Dcp, 1.8 μM ACPS, 210 μM [3H]CoA, 36 hour, 37° C., replicates", "result": "1.04 × 10^6 (±0.93%) and 1.00 × 10^6 (±0.77%) and 0.98 × 10^6 (±0.95%)"}, {"measurement": "amount of holo-Dcp formed versus amount of apo-Dcp", "setting": "apo-Dcp; varying apo-Dcp, 1.8 μM ACPS, overnight at 37° C., FIG. 4", "result": "increases linearly"}, {"measurement": "modification of apo-form of Streptomycete ACPs (frenolicin, granaticin, oxytetracycline, tetracenomycin)", "setting": "Streptomycete ACPs", "result": "modifies the apo-form"}, {"measurement": "time course of modification of apo-ACP", "setting": "E. coli FAS apo-ACP; FIG. 14B", "result": "almost exclusive modification"}, {"measurement": "time course of modification of EntF", "setting": "EntF", "result": "almost no modification"}, {"measurement": "substrate inhibition at apo-ACP concentrations", "setting": "apo-ACP [1]", "result": "greater than 2 μM"}, {"measurement": "specific activity", "setting": "apo-ACP [1]; purification from E. coli BL21(DE3)pDPJ, fraction Crude extract", "result": 200, "unit": "mU · mg^−1"}, {"measurement": "specific activity", "setting": "apo-ACP [1]; purification from E. coli BL21(DE3)pDPJ, fraction DE-52", "result": 250, "unit": "mU · mg^−1"}, {"measurement": "specific activity", "setting": "apo-ACP [1]; purification from E. coli BL21(DE3)pDPJ, fraction SP-Sepharose", "result": 320, "unit": "mU · mg^−1"}, {"measurement": "specific activity", "setting": "apo-ACP [1]; purified protein, >95% purity", "result": 320, "unit": "mU/mg"}, {"measurement": "Km", "setting": "apo-ACP [1]; read-out: Km value for CoA", "result": 50, "unit": "µM"}, {"measurement": "Km", "setting": "apo-ACP [1]; read-out: Km value for apo-ACP (upper limit)", "result": "≤ 1", "unit": "µM"}, {"measurement": "apparent kcat value", "setting": "apo-ACP [1]; saturating CoA and 50 μM apo-ACP", "result": "about 10 min^−1"}, {"measurement": "radioactivity incorporated into the protein fraction, ACP + ACPS", "setting": "apo-ACP [2]", "result": "2.21 × 10^6 (±.63%) and 2.13 × 10^6 (±.65%) and 2.20 × 10^6 (±.64%)"}]}, {"molecule": "B2", "values": [{"measurement": "phosphopantetheinylation of EntF", "setting": "EntF", "result": "can catalyze modification"}, {"measurement": "phosphopantetheinylation of SrfB1", "setting": "SrfB1 [3]", "result": "capable of phosphopantetheinylating; also recorded: efficiently catalyzes modification"}, {"measurement": "increase of [14C]-L-valine-holo-SrfB1 covalent complex following incubation with Sfp", "setting": "SrfB1 [4]", "result": "about 14 fold"}, {"measurement": "phosphopantetheinylation of PCP at different substrate concentrations", "setting": "[5]; 13 nM Sfp, 15 minute reaction, FIG. 13", "result": "capable of phosphopantetheinylating a substrate, such as PCP, in a wide range of concentrations"}, {"measurement": "phosphopantetheinylation of His6-PCP", "setting": "[5]", "result": "capable of transferring phosphopantetheine groups; also recorded: efficiently catalyzes modification"}]}, {"molecule": "B3", "values": [{"measurement": "phosphopantetheinylation of ACP", "setting": "E. coli FAS apo-ACP", "result": "capable of transferring phosphopantetheine groups"}, {"measurement": "time course of modification of EntF", "setting": "EntF", "result": "modified effectively"}, {"measurement": "phosphopantetheinylation of EntF", "setting": "EntF", "result": "capable of phosphopantetheinylating"}, {"measurement": "phosphopantetheinylation of His6-PCP", "setting": "[5]", "result": "capable of transferring phosphopantetheine groups"}]}, {"molecule": "B4", "values": [{"measurement": "phosphopantetheinylation of ACP", "setting": "E. coli FAS apo-ACP", "result": "capable of transferring phosphopantetheine groups"}, {"measurement": "time course of modification of EntF", "setting": "EntF", "result": "almost no modification"}, {"measurement": "phosphopantetheinylation of His6-PCP", "setting": "[5]", "result": "capable of transferring phosphopantetheine groups"}]}]}
